This note sets out measurements from publication PMC12412624, “Engineered Cas12j‐8 is a Versatile Platform for Multiplexed Genome Modulation in Mammalian Cells”.

Data set [1] has as its system T1, dCas12j-8 E547R E547R;D369A;E567A;D658A (bacteriophage (metagenome)).
T1 sequence: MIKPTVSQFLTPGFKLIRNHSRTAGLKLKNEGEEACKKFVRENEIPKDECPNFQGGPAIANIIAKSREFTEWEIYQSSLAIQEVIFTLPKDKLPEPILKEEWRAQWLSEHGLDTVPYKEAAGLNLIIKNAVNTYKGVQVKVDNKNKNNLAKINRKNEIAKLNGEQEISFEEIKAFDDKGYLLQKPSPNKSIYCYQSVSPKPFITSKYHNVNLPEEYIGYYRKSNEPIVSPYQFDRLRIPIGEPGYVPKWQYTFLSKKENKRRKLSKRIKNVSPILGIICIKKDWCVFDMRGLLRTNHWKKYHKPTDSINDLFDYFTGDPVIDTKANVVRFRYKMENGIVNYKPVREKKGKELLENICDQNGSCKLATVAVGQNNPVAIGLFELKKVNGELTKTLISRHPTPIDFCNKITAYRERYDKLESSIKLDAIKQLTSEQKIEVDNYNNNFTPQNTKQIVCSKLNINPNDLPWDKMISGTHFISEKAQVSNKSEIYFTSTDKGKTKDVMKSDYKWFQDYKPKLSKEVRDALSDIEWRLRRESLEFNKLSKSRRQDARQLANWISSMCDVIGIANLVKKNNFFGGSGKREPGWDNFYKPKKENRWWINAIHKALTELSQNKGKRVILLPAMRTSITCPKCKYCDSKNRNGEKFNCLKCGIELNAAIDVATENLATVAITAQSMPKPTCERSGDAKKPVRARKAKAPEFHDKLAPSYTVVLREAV
Conditions: HEK293T cells; panel 1c (compare within a panel only); scale: mean GFP / mean GFP of wild type, printed, no background subtraction.

Data set [2] has as its system T2, dCas12j-8 E258R+D495R E258R;D495R;D369A;E567A;D658A (bacteriophage (metagenome)).
T2 sequence: T1 sequence with E258R, D495R, R547E
As to conditions: HEK293T cells; panel 1d (compare within a panel only); scale: mean GFP / mean GFP of wild type, printed, no background subtraction.

Data set [3] has as its system T3, dCas12j-8 E258R+D142R E258R;D142R;D369A;E567A;D658A (bacteriophage (metagenome)).
T3 sequence: T1 sequence with D142R, E258R, R547E
Conditions: HEK293T cells; panel 1d (compare within a panel only); scale: mean GFP / mean GFP of wild type, printed, no background subtraction.

Positions count from the first letter of the chain named.

As to “CUUUCAAGACUAAUAGAUUGCUCCUUACGAGGAGACACUCCCUAUCAGUGAUAGAG / TTNACTCCCTATCAGTGATAGAG / CTCTATCACTGATAGGGAGTNAA [TetO]”, the values for the binding signal in data set [1], in data set [2] and in data set [3] were 1.22, 3.18 and 1.87, respectively.
